# Data: patent publication US20260008852A1 (CRYSTAL BIOSCIENCE, published 2026)
# Positions count from the first letter of the chain named.
# T1: his-tagged B7-H3 (UniProt Q5ZPR3-2 29-245, limits assumed)
# T1 construct: also called CD276; not shown: His tag
# T1 sequence (looked up): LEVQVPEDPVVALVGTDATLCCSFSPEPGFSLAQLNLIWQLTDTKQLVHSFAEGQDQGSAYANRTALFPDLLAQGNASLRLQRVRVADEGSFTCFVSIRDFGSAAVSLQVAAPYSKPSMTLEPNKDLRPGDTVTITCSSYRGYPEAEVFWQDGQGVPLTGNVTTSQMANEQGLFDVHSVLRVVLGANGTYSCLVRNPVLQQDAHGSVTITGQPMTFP
# B1: 40633p1.1.G7 scFv-Fc (scFv, V domains shown)
# VH: EVQLLESGGGLVQPGGSLRLSCAASGFTFSGSAMNWVRQAPGKGLEWVSAINSGGTTIYYADSVKGRFTVSRDNSKNTLYLQMNSLRAEDTAVYYCVKLDFYYGMDVWGEGTTVTVSS
# VL: QSVVTQPPSASGTPGQRVTVSCSGSSSNVGSKYVQWYQQLPGTAPKLLIYATDRRPSGVPDRFSGSKSGTSASLAISGLQSEDEADYYCASWDDSLNAWVFGGGTKLTVL
# notes: Tested as scFv-Fc supernatant
# B2: 40633p1.1.H11 scFv-Fc (scFv, V domains shown)
# VH: EVQLLESGGGLVQPGGSLRLSCAASGFTFSSYPMTWVRQAPGKGLEWVADINSGGGTTLYADAVKGRFTISRDNSKNIVYLQMNSLRGEDTAVYYCAKHLDYYSYGMDVWGQGTTVTVSS
# VL: QSVLTQPPSASGTPGQRVTISCSGVTSKIGSKYVHWYQQLPGTAPKLLIYRNFERPSGVPDRFSGSTSGTSASLAISGLQSEDEADYYCATWEGALNGWVFGGGTKLTVL
# notes: Tested as scFv-Fc supernatant
# B3: 40633p1.1.B12 scFv-Fc (scFv, V domains shown)
# VH: EVQLLESGGGLLQPGGSLRLSCAASGFSFSSYGMHWVRQAPGKGLEWVAAINSDGSRIYYADSVKGRFTISRDNSKNTLYLQMNSLRAEDTAVYYCTKYYYHYAMDVWGQGTTVTVSS
# VL: QSVLTQPPSASGTPGQRVTISCSGSRSDIGATTVNWYQQLPGTAPKLLTYQSHLRPSGVPDRFSGSKSGTSASLAISGLQSEDEADYYCASWDASLNTWVFGGGTKLTVL
# B4: 40633p1.2.A8 scFv-Fc (scFv, V domains shown)
# VH: B3 VH
# VL: B3 VL with T49I
# B5: 40633p1.1.G10 scFv-Fc (scFv, V domains shown)
# VH: B3 VH with L12V, Q13E, E46D, A50V, S53G, D54E, R57G, I58T, N77S, H102N
# VL: B3 VL with S27T, A31T, T33S, T49I, L54Q, L96Q
# B6: 40633p1.2.D1 scFv-Fc (scFv, V domains shown)
# VH: EVQLLESGGGLVQPGGSLRLSCAASGFTFDVYGMSWVRQAPGKGLEWVSAINWNGGSTYYADSVKGRFTISRDNSENTLYLQMNSLRAEDTAVYYCAKEKWKHFIYYGMDVWGQGTTVTVSS
# VL: QSVLTQPASASGTPGQTVSISCSGSSSNIDSNTANWYQQLPGTAPKLLIYSNNQRPSGVPDRFSGSKSDTSASLAISGLQSEDEGDYYCSAWDDNLNGWLFGGGTKLTVL
# notes: Tested as scFv-Fc supernatant
# B7: 40633p1.1.D11 scFv-Fc (scFv, V domains shown)
# VH: EVQLLESGGGLVQPGGSLRLSCAASGFTFRSYAMSWVRQAPGKGLEWVAYIGSSGGTTYYADSVKGRFTISRDNSKNTLYLQMNSLRAEDTAVYYCVKESYYYMDVWGQGTTVTVSS
# VL: QSVLTQPPSASGTPGQRVTISCSATISNIDINRVSWYQQLPGTAPKLLIFNSQRPSGVPDRFSGSKSGTSASLAISGLQSEDEADYYCATWDDSLNSWVFGGGTKLTVL
# notes: Tested as scFv-Fc supernatant
# B8: 40633p1.2.A10 scFv-Fc (scFv, V domains shown)
# VH: EVQLLESGGGLVQPGGSLRLSCAASGFTVSYYGMSWVRQAPGKGLEWVSVIKQDGSEEYYADSVKGRFTISRDNSKNTLYLQMNSLRAEDTAVYYCARHWNDYSNGMNVWGQGTTVTVSS
# VL: QSVLTQPPSASGTPGQRVTISCSGSTSNVGDRYVYWYQQLPGTAPKLLIYLDDQRPSGVPDRFSGSKSGTSASLAISGLQSEDEADYYCASWDASLNGWVFGGGTKLTVL
# notes: Tested as scFv-Fc supernatant
# B9: 40633p1.1.G5 scFv-Fc (scFv, V domains shown)
# VH: B8 VH with T28I, S30N, A40P, V50A, E58K, N77T
# VL: QSVLTQPPSASGTPGQRVTISCSGSWSNIGSYNSHWYQKLPGTAPKLLIYTTDRRPSGVPDRFSGSKSGTSASLAISGLQSEDEADYYCGTWDDSLNVWVFGGGTKLTVL
# notes: Tested as scFv-Fc supernatant
# B10: 40633p1.1.E3 scFv-Fc (scFv, V domains shown)
# VH: B8 VH with V50A, E58K, G106A
# VL: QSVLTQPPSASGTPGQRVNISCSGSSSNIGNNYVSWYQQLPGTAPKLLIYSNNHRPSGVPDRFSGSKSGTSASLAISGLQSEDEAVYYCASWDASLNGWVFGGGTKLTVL
# notes: Tested as scFv-Fc supernatant
# B11: 40633p1.2.C3 scFv-Fc (scFv, V domains shown)
# VH: B8 VH with V50A, E58K, G106A, G111E
# VL: B8 VL with T26N, D31G, R32N, Y35S, L51R, D52N, D53S, D86V
# notes: Tested as scFv-Fc supernatant
# B12: 40633p1.2.F3 scFv-Fc (scFv, V domains shown)
# VH: B8 VH
# VL: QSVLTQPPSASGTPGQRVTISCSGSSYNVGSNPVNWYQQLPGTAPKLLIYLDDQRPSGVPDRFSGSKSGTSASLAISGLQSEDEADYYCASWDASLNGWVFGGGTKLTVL
# notes: Tested as scFv-Fc supernatant
# B13: 40633p1.1.A7 scFv-Fc (scFv, V domains shown)
# VH: B8 VH with V50A, E58K, G106A
# VL: B8 VL with V29I, D31R, R32E, Y33S, L51T, D52I, D86V
# notes: Tested as scFv-Fc supernatant
# B14: 40633p1.1.G11 scFv-Fc (scFv, V domains shown)
# VH: B8 VH with L86P
# VL: B8 VL
# notes: Tested as scFv-Fc supernatant
# B15: 40633p1.2.E1 scFv-Fc (scFv, V domains shown)
# VH: B8 VH with G9R
# VL: B8 VL
# notes: Tested as scFv-Fc supernatant
# B16: 40633p1.1.F2 scFv-Fc (scFv, V domains shown)
# VH: EVQLLESGGGLVQPGGSLRLSCVASGLTFNGFAMTWVRQAPGKGLEWVSGISWNSGSIYYADSVKGRFTISRDNSKNTVYLQMSSLRAEDTAIYYCAKNWNDYYNSMDVWGQGTTVTVSS
# VL: QSVLTQPPSASGTPGQRVTISCSGSRSNIGTKYVYWYQQFPGTAPKLLIYTTDRRPSGVPDRFSGSKSGTSASLAISGLQSEDEADYYCSAWDDRLNAWVFGGGTKLTVL
# notes: Tested as scFv-Fc supernatant
# B17: 40633p1.1.E6 scFv-Fc (scFv, V domains shown)
# VH: EVQLLESGGGLVQPGGSLRLSCAASGLTFSSYAMNWVRQAPGKGLEWVAGIGGSGSSTYHTDSVKGRFTISRDNSKNTLYLQMSSLRAEDAAVYYCAKEDHWSGGMDVWGQGTTVTVSS
# VL: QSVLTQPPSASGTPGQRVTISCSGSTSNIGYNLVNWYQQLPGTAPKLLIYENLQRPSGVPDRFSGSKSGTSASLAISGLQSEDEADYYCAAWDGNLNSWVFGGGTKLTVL
# B18: 40633p1.1.G3 scFv-Fc (scFv, V domains shown)
# VH: B17 VH with S84N
# VL: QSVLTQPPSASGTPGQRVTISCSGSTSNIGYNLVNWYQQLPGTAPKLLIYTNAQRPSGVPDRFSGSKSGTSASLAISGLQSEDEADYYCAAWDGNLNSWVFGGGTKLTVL
# B19: 40633p1.1.A6 scFv-Fc (scFv, V domains shown)
# VH: EVQLLESGGGLVQPGGSLRLSCAASGFSFSNYDMSWVRQAPGKGLEWVAGIRSGSRTYYADSVKGRFTISRDNSKNTLYLQMNSLRAEDTATYYCGRYFNMDVWGQGTTVTVSS
# VL: QSVLTQPPSASGTPGQRVTISCSGSTFNIGTNLVHWYQQLPGTAPKLLIYLTDRRPSGVPDRFSGSKSGTSASLAISGLQSEDEANYYCATWDDSLNSFLFGGGTKLTVL
# B20: 40633p1.1.A11 scFv-Fc (scFv, V domains shown)
# VH: EVQLLESGGDLVQPGGSLRLSCAASGFTFNTYWMNWVRQAPGKGLEWVAGINSKGGVTYYADSVKGRFTISRDNSKNTLYLQMNSLRAEDTAVYYCADWNDYDIMDVWGQGTTVTVSS
# VL: QSVLTQPPSASGTPGQTITISCSGSSSNVGRRTVNWYQQLPGTAPKLLIYTNAQRPSGVPDRFSGSKSGTSASLAISGLQSEDEADYYCATWDDSLNAWVFGGGTKLTVL
# B21: 40633p1.1.E4 scFv-Fc (scFv, V domains shown)
# VH: B20 VH with D10G, N30S, T31S, N35S, A49S, N52S, K54S, G56S, V57A, D98R
# VL: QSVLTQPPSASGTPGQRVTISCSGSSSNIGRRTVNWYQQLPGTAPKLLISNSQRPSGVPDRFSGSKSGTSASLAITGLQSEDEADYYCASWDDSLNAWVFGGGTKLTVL
# notes: Tested as scFv-Fc supernatant
# B22: 40633p1.1.B3 scFv-Fc (scFv, V domains shown)
# VH: B8 VH with V50A, E58K, G106A
# VL: B16 VL with R26T, T31R, K32E, Y33S, F40L, T52I, R54Q, S90G, A91T, R95S
# notes: Tested as scFv-Fc supernatant
# B23: 40633p1.2.D7 scFv-Fc (scFv, V domains shown)
# VH: B20 VH with D10S, N30S, T31S, N35S, A49S, N52S, K54S, G56S, V57A, D98R
# VL: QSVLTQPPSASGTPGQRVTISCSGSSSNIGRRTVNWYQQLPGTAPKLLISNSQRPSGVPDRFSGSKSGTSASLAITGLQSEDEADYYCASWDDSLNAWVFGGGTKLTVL
# notes: Tested as scFv-Fc supernatant
# B24: 40633p1.1.C11 scFv-Fc (scFv, V domains shown)
# VH: B20 VH with D10G, N30S, T31S, N35S, S53R, K54N, V57T, D98R
# VL: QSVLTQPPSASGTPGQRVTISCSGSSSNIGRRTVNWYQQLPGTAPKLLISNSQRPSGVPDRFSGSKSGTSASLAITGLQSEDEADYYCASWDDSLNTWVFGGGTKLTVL
# notes: Tested as scFv-Fc supernatant
# Target: T1, his-tagged B7-H3
# Assay: SPR, Carterra LSA; binder captured by anti-human Fc, his-tagged B7-H3 injected
# Description: Binding affinities of anti-B7-H3 antibodies to B7-H3 were measured by Surface Plasmon Resonance (SPR) on a Carterra LSA instrument. Goat anti-human Fc antibody was amine coupled to a HC30M chip. ScFv-Fc supernatants were diluted 30-fold with HBSTE and were captured by the anti-human Fc coupled HC30M chip. A 1:2 dilution series of his-tagged B7-H3, starting at 400 nM, was injected onto the chip for binding. Data was analyzed using the Carterra TM Kinetics software.
Binder,Kd [nM],kon [M⁻¹ s⁻¹],koff [s⁻¹]
B1,0.113,411000,
B2,0.175,113000,
B3,20.2,349000,0.01
B4,12.5,304000,
B5,0.248,349000,
B6,39.8,392000,0.02
B7,13.2,277000,
B8,1.44,422000,
B9,437,141000,0.06
B10,> 400,2030,0.65
B11,20.7,33500,
B12,27.6,307000,0.01
B13,3.62,371000,
B14,1.48,434000,
B15,8,124000,
B16,298,108000,0.03
B17,142,6880,
B18,524,73300,0.04
B19,1,166000,
B20,17.4,714000,0.01
B21,3.95,523000,
B22,6.42,360000,
B23,5.69,402000,
B24,1.03,481000,
